Data: patent US20110082285A1 (STAIDSON BEIJING PHARMACEUTICAL, published 2011)

Target: T1, P75 (UniProt P08138 29-427)
T1 construct: whole, on cells
T1 sequence (looked up): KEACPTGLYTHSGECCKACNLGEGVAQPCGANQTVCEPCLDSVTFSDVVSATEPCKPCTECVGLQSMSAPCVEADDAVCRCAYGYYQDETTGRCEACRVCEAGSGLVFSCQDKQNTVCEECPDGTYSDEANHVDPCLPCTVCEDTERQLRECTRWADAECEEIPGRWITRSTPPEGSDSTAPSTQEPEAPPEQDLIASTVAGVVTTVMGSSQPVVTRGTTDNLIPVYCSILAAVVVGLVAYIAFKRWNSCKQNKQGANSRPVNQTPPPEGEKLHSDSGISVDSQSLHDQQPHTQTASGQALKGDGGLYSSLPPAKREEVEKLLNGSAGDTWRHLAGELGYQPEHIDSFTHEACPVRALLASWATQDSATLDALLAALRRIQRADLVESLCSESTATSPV
Assay: I^125-labeled ligand crosslinked to A875 tumor cells expressing P75, immunoprecipitation, SDS-PAGE, autoradiography
Method: The WT mouse NGF and mutant NGF was labeled with I¹²⁵, then added to both the cells expressing TrkA and the A875 tumor cells expressing P75. The ligand and receptor were crosslinked by N-hydroxysuccinimidyl-4-azidobenzoate, the cells were lysed, and the cross-linked complex was immunoprecipitated overnight at 4° C.

B1: mutant NGF (mouse NGF-β mature peptide with Lys32, Lys34 and Glu35 changed to Ala) (ligand)
chain: SSTHPVFHMGEFSVCDSVSVWVGDKTTATDIAGAAVTVLAEVNINNSVFRQYFFETKCRASNPVESGCRGIDSKHWNSYCTTTHTFVKALTTDEKQAAWRFIRIDTACVCVLSRKATRRG
modifications: Labelled with I^125 (labelled residues not stated). Disulfide-bonded monomer; NGF-β acts as a non-covalent homodimer, one chain given.
notes: also called mutant NGF-β; NGF mutant
- binding result: no binding
